The source of these data is patent EP4778941A1 (Jiangsu Hengrui Pharmaceuticals Co., Ltd., dated 2025).

The target of assay [1] is T1, Human HER3 protein on the cell surface (human, UniProt P21860 20-1342). Description: cell-based or functional assay.
Assay [2] deals with T1, Human HER3 protein on the cell surface. Description: FACS on MDA-MB-453 cells (HER3 single-positive).
Assay [3] has as its target Human MET protein on the cell surface (human, UniProt P08581 25-1390). Description: cell-based or functional assay.
The target of assay [4] is T2, His-tagged human MET antigen (human, UniProt P08581 25-932).
T2 construct: Soluble antigen used as analyte in SPR; not shown: His tag
Description: SPR, Biacore 8K; antibody captured, His-tagged human MET antigen 6.25-400 nM as analyte; 1:1 Langmuir.

T2 sequence (P08581 25-932 limits assumed): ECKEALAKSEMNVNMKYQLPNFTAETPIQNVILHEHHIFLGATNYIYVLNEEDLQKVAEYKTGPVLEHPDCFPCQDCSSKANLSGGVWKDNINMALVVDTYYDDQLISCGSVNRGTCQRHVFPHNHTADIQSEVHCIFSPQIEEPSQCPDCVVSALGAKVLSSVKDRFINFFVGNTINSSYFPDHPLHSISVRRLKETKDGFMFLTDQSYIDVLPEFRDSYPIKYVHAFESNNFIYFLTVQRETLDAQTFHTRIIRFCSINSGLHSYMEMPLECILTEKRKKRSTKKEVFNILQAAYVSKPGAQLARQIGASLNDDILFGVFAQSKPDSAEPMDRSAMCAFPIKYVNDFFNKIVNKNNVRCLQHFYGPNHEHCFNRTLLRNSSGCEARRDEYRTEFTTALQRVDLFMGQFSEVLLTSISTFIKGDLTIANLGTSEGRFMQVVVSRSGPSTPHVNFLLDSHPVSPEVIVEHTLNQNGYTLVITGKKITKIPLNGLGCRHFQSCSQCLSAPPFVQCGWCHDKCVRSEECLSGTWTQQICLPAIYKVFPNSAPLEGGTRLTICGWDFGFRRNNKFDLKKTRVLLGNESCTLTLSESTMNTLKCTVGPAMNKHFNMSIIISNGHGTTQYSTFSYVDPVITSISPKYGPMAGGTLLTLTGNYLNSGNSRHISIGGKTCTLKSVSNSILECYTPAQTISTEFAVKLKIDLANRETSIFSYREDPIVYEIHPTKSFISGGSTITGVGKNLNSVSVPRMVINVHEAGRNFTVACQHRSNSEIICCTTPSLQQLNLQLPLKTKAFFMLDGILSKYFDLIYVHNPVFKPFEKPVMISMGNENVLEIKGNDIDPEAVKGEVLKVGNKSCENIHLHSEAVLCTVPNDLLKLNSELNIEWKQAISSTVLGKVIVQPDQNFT
Human MET protein on the cell surface, sequence (P08581 25-1390): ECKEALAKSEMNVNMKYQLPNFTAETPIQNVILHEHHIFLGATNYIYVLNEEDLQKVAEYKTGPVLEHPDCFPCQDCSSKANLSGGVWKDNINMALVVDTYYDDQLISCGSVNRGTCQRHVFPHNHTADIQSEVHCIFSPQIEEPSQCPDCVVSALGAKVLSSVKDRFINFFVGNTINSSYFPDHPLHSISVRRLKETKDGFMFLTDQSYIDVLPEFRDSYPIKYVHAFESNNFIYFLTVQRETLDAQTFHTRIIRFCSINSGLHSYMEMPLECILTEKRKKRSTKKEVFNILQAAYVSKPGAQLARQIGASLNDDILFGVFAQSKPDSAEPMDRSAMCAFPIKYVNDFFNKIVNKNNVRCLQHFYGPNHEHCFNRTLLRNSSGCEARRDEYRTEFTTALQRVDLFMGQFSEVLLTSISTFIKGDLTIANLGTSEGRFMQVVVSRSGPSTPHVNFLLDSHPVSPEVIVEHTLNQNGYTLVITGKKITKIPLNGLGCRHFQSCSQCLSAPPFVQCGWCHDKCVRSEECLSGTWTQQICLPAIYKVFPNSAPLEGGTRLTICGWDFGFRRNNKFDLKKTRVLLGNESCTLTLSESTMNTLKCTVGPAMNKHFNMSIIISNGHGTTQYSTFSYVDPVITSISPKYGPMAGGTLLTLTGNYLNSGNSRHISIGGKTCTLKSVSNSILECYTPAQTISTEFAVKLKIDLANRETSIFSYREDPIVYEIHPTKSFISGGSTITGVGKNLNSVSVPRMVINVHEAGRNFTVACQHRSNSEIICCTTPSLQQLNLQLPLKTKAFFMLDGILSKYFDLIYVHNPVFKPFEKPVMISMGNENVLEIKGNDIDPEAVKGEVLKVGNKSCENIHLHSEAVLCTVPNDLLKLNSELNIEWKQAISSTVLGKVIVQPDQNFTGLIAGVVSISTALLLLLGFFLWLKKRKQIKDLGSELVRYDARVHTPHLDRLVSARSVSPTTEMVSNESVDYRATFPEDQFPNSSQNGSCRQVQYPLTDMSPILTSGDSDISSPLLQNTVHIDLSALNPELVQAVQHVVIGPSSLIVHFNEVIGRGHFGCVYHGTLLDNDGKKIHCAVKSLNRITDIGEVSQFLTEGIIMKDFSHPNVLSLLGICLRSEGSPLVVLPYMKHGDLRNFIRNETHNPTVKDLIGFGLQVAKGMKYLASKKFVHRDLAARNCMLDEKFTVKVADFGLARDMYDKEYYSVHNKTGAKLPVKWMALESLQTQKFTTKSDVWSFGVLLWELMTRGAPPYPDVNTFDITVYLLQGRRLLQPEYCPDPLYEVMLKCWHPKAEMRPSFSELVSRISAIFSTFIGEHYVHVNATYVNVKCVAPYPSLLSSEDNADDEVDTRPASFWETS

B1: Anti-MET antibody S3 (antibody, human IgG2, kappa, V domains shown)
VH: QVQLVESGGGVVQPGRSLRLSCAASGFSLSNYGVHWVRQAPGKGLEWLAVIWSGGSTNYAAAFVSRLTISKDNSKNTVYLQMNSLRAEDTAVYYCARNHDNPYNYAMDYWGQGTTVTVSS
VL: DIVLTQSPDSLAVSLGERATINCRADKSVSTSTYNYLHWYQQKPGQPPKLLIYLASNLASGVPDRFSGSGSGTDFTLTISSLQAEDVAVYYCQHSRDLPPTFGQGTKLEIKR
On to B1, for which the “Minimum cell viability (%)” value in assay [1] stood at 97.3%. In addition, the Maximum fluorescence value in assay [2] is 77.

B2: Anti-MET antibody A13 (antibody, human IgG1, kappa, V domains shown)
VH: QVQLVQSGAEVKKPGASVKVSCEASGYTFTSYGFSWVRQAPGQGLEWMGWISASNGNTYYAQKLQGRVTMTTDTSTSSAYMELRSLRSDDTAVYYCARVYADYADYWGQGTLVTVSS
VL: DIQMTQSPSSVSASVGDRVTITCRASQGINTWLAWYQQKPGKAPKLLIYAASSLKSGVPSRFSGSGSGADFTLTISSLQPEDFATYYCQQANSFPLTFGGGTKVEIKR
In the case of B2, in assay [3], the “Endocytosis ratio at 0 h (FACS)” value was found to be 0%, the “Endocytosis ratio at 0.5 h (FACS)” value was found to be 25.7%, the “Endocytosis ratio at 2 h (FACS)” value is 45.7% and the “Endocytosis ratio at 6 h (FACS)” value stood at 57.6%. In assay [4], this molecule gave an equilibrium dissociation constant (Kd) of 6.55 nM, a dissociation rate constant (koff) of 0.000614 s⁻¹ and an association rate constant (kon) of 93800 M⁻¹ s⁻¹.

B3: Anti-HER3/MET bispecific antibody 2232-02 (S3-A) (bispecific antibody, human IgG1, kappa)
heavy 1: not shown
light 1: DIVLTQSPDSLAVSLGERATINCRADKSVSTSTYNYLHWYQQKPGQPPKLLIYLASNLASGVPDRFSGSGSGTDFTLTISSLQAEDVAVYYCQHSRDLPPTFGQGTKLEIKGGGGSGIPPKIECLPIDISIDEGKVLTVASAFTGEPTPEVTWSTGGRKIHSQEQGRFHIENTDDSTTLTIKDVQKQDGGLYTLTLRNEFGSDSATVNIHIRSI
heavy 2: QVQLVQSGGGLVQPGRSLRLSCAASGFTFDDYAMHWVRQAPGKGLEWVSGISWNSGSIGYADSVKGRFTISRDNAKNSLYLQMNSLRAEDTALYYCAKEGLPGLDYWGQGTLVTVSSASTKGPSVFPLAPSSKSTSGGTAALGCLVKDYFPEPVTVSWNSGALTSGVHTFPAVLQSSGLYSLSSVVTVPSSSLGTQTYICNVNHKPSNTKVDKKVEPKSCDKTHTCPPCPAPELLGGPSVFLFPPKPKDTLMISRTPEVTCVVVDVSHEDPEVKFNWYVDGVEVHNAKTKPREEQYNSTYRVVSVLTVLHQDWLNGKEYKCKVSNKALPAPIEKTISKAKGQPREPQVCTLPPSREEMTKNQVSLSCAVKGFYPSDIAVEWESNGQPENNYKTTPPVLDSDGSFFLVSKLTVDKSRWQQGNVFSCSVMHEALHNHYTQKSLSLSPGK
light 2: DIQMTQSPSSLSASIGDRATITCRASQHVGTYLNWYQQKPGKTPKLLISGAANLQSGVPSRFSGSGSGTDFTLTISSLQPEDFATYYCQQSYNTPPFSFGQGTKVEIKRTVAAPSVFIFPPSDEQLKSGTASVVCLLNNFYPREAKVQWKVDNALQSGNSQESVTEQDSKDSTYSLSSTLTLSKADYEKHKVYACEVTHQGLSSPVTKSFNRGEC
Regarding B3, the “Minimum cell viability (%)” value in assay [1] amounted to 25.8%. Besides, in assay [2], the concentration giving a half-maximal response (EC50) amounted to 2.64 nM and the Maximum fluorescence value turned out to be 1870.

In general, Kd refers to the equilibrium constant for the complex coming apart. Low values mean higher affinity, high ones lower affinity. As usually defined, the koff is a measure of how fast the partners let go of each other. A word on the kon: it is the second-order rate constant of association. Read a low kon as slow association. In general, EC50 refers to the concentration giving half of the maximal effect. High values mean a need for much substance, low ones an effect from little substance.
